Experiment [1] addresses haemoglobin:haptoglobin complex (UniProt P00738). Kind of experiment: ITC.
The target of experiment [2] is human haemoglobin (human). Kind of experiment: ITC.
For experiment [3], the target named is transferrin (Homo sapiens) (UniProt P02787). The following applies: cited from earlier work.
Experiment [4] addresses Kingella denitrificans HpuA, wild type (Kingella denitrificans). Kind of experiment: ITC.
Experiment [5] shares this target. Kind of experiment: NMR titration.
For experiment [6], the target named is KdHpuA Δloop-1 (Kingella denitrificans). As to the kind of experiment: NMR titration.
For experiment [7], the target named is KdHpuA T124D (Kingella denitrificans). Kind of experiment: NMR titration.

Sequence of UniProt P02787 (P02787 20-698): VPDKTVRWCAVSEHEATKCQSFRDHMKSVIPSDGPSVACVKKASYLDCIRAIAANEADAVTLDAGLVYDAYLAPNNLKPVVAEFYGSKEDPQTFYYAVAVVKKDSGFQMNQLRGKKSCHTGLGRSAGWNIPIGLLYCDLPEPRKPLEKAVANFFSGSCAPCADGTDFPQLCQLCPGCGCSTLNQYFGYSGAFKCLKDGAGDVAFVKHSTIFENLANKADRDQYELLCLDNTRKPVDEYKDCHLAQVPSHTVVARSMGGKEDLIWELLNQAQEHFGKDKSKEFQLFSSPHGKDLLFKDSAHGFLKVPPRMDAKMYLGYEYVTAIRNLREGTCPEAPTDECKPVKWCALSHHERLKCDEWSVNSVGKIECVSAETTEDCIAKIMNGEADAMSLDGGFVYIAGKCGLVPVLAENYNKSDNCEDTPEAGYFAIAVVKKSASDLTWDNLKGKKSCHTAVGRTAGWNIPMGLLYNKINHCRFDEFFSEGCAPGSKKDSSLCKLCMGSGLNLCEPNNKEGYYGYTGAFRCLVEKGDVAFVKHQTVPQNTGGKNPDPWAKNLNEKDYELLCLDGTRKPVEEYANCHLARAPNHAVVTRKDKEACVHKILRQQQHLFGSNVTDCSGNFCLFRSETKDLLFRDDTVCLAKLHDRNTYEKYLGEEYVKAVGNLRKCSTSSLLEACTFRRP

In experiment [1], “Kingella denitrificans HpuA, wild type (natural protein)” showed a Kd of 2.9 µM and a stoichiometry N (HpuA per Hb4:Hp4 complex) of 2. In addition, in experiment [2], the Kd was 10.9 µM and the stoichiometry N (HpuA per Hb tetramer) is 2.

With TbpAB (from UniProt Q9K0U9), the equilibrium dissociation constant (Kd) in experiment [3] is 0.0008 µM.

For the substance human haemoglobin (complex), the Kd in experiment [4] is 6.1 µM; in experiment [5], 10 µM; in experiment [6], 150 µM; in experiment [7] it was 16 µM. This substance also gave a stoichiometry N (Hb tetramers per HpuA) in experiment [4] of 0.5.
